This note sets out measurements from PMC6925130, “Cleaved CD31 as a target for in vivo molecular imaging of inflammation” (Scientific Reports, 2019).

The nature of series [1]: in vitro. In kind it is in vitro ADME. As to conditions: human, plasma. The protocol: Plasma stability was assessed in triplicate at 1, 2 and 4 h after incubation of the radiolabeled D-P8RI peptide (final concentration 100 pmol/mL) in human plasma at 37 °C with RCP ≥94%. After precipitation of plasma proteins with acetonitrile and centrifugation (15000 × g, 10 min), the supernatant was analyzed by RP-HPLC as described in Supplementary Data. Plasma stability was expressed in RCP (%).

A short description of a further series: in vivo. As to conditions: male, Wistar, rat, iv, 30 MBq, total radioactivity, Biodistribution. The arrangement: species or system male Wistar rats. The protocol:
Biodistribution of ^99mTc-HYNIC-D-P8RI was performed 15, 30, 90 min and 24 h post-injection. Animals (n = 3 for each time point) were injected intravenously through penis vein with 30 ± 3 MBq of ^99mTc-HYNIC-D-P8RI. They were sacrificed by isoflurane overdose and blood, heart, liver, thyroid, spleen, kidney, brain, intestine and muscle tissues were harvested and counted using a well counter. Results were expressed as the percentage of injected dose per gram of tissue (% ID/g). To characterize radiotracer elimination and potential degradation, rat urine was collected 90 min p.i, passed through a 0.22 µm PVDF filter (Durapore^TM 13 mm, Merck), and analyzed using RP-HPLC as described in Supplementary Data.

A short description of the next series: physchem. In kind it is physicochemical. Conditions: pH 7.2. The protocol:
500 µL of^ 99mTc-HYNIC-D-P8RI in PBS (pH 7.2) was added to 500 µL of octanol in a 1.5 mL conical vial. After 15 min of vortexing, the vial was centrifuged at 5000xg for 3 min. A 100 µL aliquot of both phases was collected in triplicate and counted with a gamma counter then log P values were calculated.

A short description of series [2]: in vitro. In kind it is in vitro ADME. Conditions: human, plasma. The protocol:
Protein binding of the purified radiolabeled D-P8RI peptide (final concentration 100 pmol/mL) was determined in triplicate after 0, 0.5, 1, 2, 3 and 4 h of incubation in fresh human plasma (collected in citrate tubes) at 37 °C and analyzed after size exclusion chromatography (illustra Microspin G-50 Columns, Sephadex G-50, GE Healthcare, UK). Simultaneously, radiolabeled peptide was incubated in PBS at 37 °C as a control. G-50 columns were prespun at 2000 × g for 1 min then 20 μL of mixture was added and the column was centrifuged at 2000 × g for 2 min. Columns and eluates were counted on a Wallac Wizard 3″ 1480 (Perkin Elmer, MA, USA), then protein binding was calculated using the following activity (A) ratio: A eluate/(A column + A eluate).
This is another data set of the same source.

The subject of series [3] is turpentine injected hindlimb (sterile acute inflammation). Kind of series: SPECT/CT and PET/MRI imaging of turpentine oil-induced sterile acute inflammation. In kind it is in vivo, male Wistar rats. Conditions: turpentine injected hindlimb / saline injected hindlimb; PET/MRI 1 h p.i., retro-orbital ≈20 MBq; n = 23. The protocol:
Two to 3-month-old adult male Wistar rats, weighing 250–300 g were used. The animals were housed in a controlled environment. The procedures and animal care complied with the principles formulated by the National Society for Medical Research. All methods were performed in accordance with the guidelines of the French Directorate of Veterinary Services (authorization: No. 75-214). All methods were approved by the animal ethics committee of the Claude Bernard Institute (APAFIS #14821, Paris, France). Aseptic inflammation was obtained according to a standardized procedure consisting of turpentine oil injection characterized by a massive local influx of activated inflammatory cells[33],[34]. […]
Imaging procedures of ^99mTc-HYNIC-P8RI (D and L) were performed using Single Photon Emission Computed Tomography coupled to X-ray computed tomography (SPECT/CT). […] Reconstructed slices were visually assessed in 3 planes (axial, coronal, and sagittal). […]
Three-dimensional Regions of Interests (3D-ROIs) were placed on the inflammatory muscles and the mean signal per volume unit (kBq/mL) was measured. Assuming a tissue density of 1 g/mL, the radioactivity contained in the ROI was divided by the dose administered to the animal and the volume of the ROI to obtain an imaging ROI-derived % ID/g. […]

Non-standard residues stand in square brackets, D forms with d. Residues, ends and D or L forms follow the SMILES beside them. *: point of attachment. HYNIC = NNc1ccc(C(=O)*)cn1; PEG3 = NCCOCCOCCOCCC(=O)O

In “in vitro [1]”, `CC(C)C[C@@H](NC(=O)[C@@H](C)NC(=O)[C@H]1CCCN1C(=O)[C@@H](Cc1c[nH]c2ccccc12)NC(=O)[C@@H](CCCCN)NC(=O)CCOCCOCCOCCNC(=O)c1ccc(NN)nc1)C(=O)N[C@H](Cc1ccccc1)C(=O)N[C@@H](C(=O)N[C@H](CCCNC(=N)N)C(=O)O)C(C)C` [^99mTc-HYNIC-D-P8RI, metal not drawn] ({HYNIC-PEG3}-[dK][dW][dP][dA][dL][dF][dV][dR]-OH) showed a share remaining at 1 h, 100 pmol/mL of 93.02 ± 0.04% and a share remaining at 2 h, 100 pmol/mL of 91.05 ± 0.02%. The tissue uptake at 1.5 h in “in vivo” (bladder) is 61.4 ± 13.4 %ID/g. In “in vivo” (blood), the tissue uptake at 0.25 h is 9.74 ± 1.21 %ID/g and the tissue uptake at 24 h turned out to be 0.04 ± 0.02 %ID/g. In addition, in the series “in vivo” (kidney), the tissue uptake at 1.5 h worked out at 14 ± 2.93 %ID/g. The logD in the series “physchem” is -2.92 ± 0.04. In the series “in vitro [2]”, the fraction unbound at 0 h, 100 pmol/mL is 0.928 and the fraction unbound at 0.5 h, 100 pmol/mL is 0.952.

For `O=C[C@H]([18F])[C@@H](O)[C@H](O)[C@H](O)CO` [[^18F]FDG, 2-deoxy-2-[^18F]fluoro-D-glucose], the “Mean signal ratio (TIH/SIH), PET/MRI” value in series [3] is listed as 4.49 ± 0.43.
